Experimental data taken from the supplement of paper PMC12458215.
± gives the uncertainty stated by the source.

Tested on: HEK293T
Assay: plasma membrane surface immunostaining intensity (anti-HA, deep receptor scanning) (arbitrary fluorescence units); higher = higher plasma membrane expression

| Sequence | plasma membrane surface immunostaining intensity (GPCR class: A (Olfactory)) | further results |
| --- | --- | --- |
| MELRNSTLGSGFILVGILNDSGSPELLYATFTILYMLALTSNGLLLLAITIEARLHMPMYLLLGQLSLMDLLFTSVVTPKALADFLRRENTISFGGCALQMFLALTMGSAEDLLLAFMAYDRYVAICHPLKYMTLMSPRVCWIMVATSWILASLIAIGHTMYTMHLPFCVSWEIRHLLCEIPPLLKLACADTSRYELIIYVTGVTFLLLPISAIVASYTLVLFTVLRMPSNEGRKKALVTCSSHLIVVGMFYGAATFMYVLPSSFHSPKQDNIISVFYTIVTPALNPLIYSLRNKEVMRALRRVLGKYILLAHSTL [OR2AG2] | 164 ± 69 |  |
| MELWNFTLGSGFILVGILNDSGSPELLCATITILYLLALISNGLLLLAITMEARLHMPMYLLLGQLSLMDLLFTSVVTPKALADFLRRENTISFGGCALQMFLALTMGGAEDLLLAFMAYDRYVAICHPLTYMTLMSSRACWLMVATSWILASLSALIYTVYTMHYPFCRAQEIRHLLCEIPHLLKVACADTSRYELMVYVMGVTFLIPSLAAILASYTQILLTVLHMPSNEGRKKALVTCSSHLTVVGMFYGAATFMYVLPSSFHSTRQDNIISVFYTIVTPALNPLIYSLRNKEVMRALRRVLGKYMLPAHSTL [OR2AG1] | 135 ± 23 |  |
| MEMFTFLLTCIFLPLLRGHSLFTCEPITVPRCMKMAYNMTFFPNLMGHYDQSIAAVEMEHFLPLANLECSPNIETFLCKAFVPTCIEQIHVVPPCRKLCEKVYSDCKKLIDTFGIRWPEELECDRLQYCDETVPVTFDPHTEFLGPQKKTEQVQRDIGFWCPRHLKTSGGQGYKFLGIDQCAPPCPNMYFKSDELEFAKSFIGTVSIFCLCATLFTFLTFLIDVRRFRYPERPIIYYSVCYSIVSLMYFIGFLLGDSTACNKADEKLELGDTVVLGSQNKACTVLFMLLYFFTMAGTVWWVILTITWFLAAGRKWSCEAIEQKAVWFHAVAWGTPGFLTVMLLAMNKVEGDNISGVCFVGLYDLDASRYFVLLPLCLCVFVGLSLLLAGIISLNHVRQVIQHDGRNQEKLKKFMIRIGVFSGLYLVPLVTLLGCYVYEQVNRITWEITWVSDHCRQYHIPCPYQAKAKARPELALFMIKYLMTLIVGISAVFWVGSKKTCTEWAGFFKRNRKRDPISESRRVLQESCEFFLKHNSKVKHKKKHYKPSSHKLKVISKSMGTSTGATANHGTSAVAITSHDYLGQETLTEIQTSPETSMREVKADGASTPRLREQDCGEPASPAASISRLSGEQVDGKGQAGSVSESARSEGRISPKSDITDTGLAQSNNLQVPSSSEPSSLKGSTSLLVHPVSGVRKEQGGGCHSDT [FZD6] |  | plasma membrane surface immunostaining intensity (GPCR class: F): 329 ± 75 |
| MENGSYTSYFILLGLFNHTRAHQVLFMMVLSIVLTSLFGNSLMILLIHWDHRLHTPMYFLLSQLSLMDVMLVSTTVPKMAADYLTGSKAISRAGCGAQIFFLPTLGGGECFLLAAMAYDRYAAVCHPLRYPTLMSWQLCLRMNLSCWLLGAADGLLQAVATLSFPYCGAHEIDHFFCETPVLVRLACADTSVFENAMYICCVLMLLVPFSLILSSYGLILAAVLHMRSTEARKKAFATCSSHVAVVGLFYGAAIFTYMRPKSHRSTNHDKVVSAFYTMFTPLLNPLIYSVKNSEVKGALTRCMGRCVALSRE [OR2T8] | 132 ± 16 |  |
| MENQSSISEFFLRGISAPPEQQQSLFGIFLCMYLVTLTGNLLIILAIGSDLHLHTPMYFFLANLSFVDMGLTSSTVTKMLVNIQTRHHTISYTGCLTQMYFFLMFGDLDSFFLAAMAYDRYVAICHPLCYSTVMRPQVCALMLALCWVLTNIVALTHTFLMARLSFCVTGEIAHFFCDITPVLKLSCSDTHINEMMVFVLGGTVLIVPFLCIVTSYIHIVPAILRVRTRGGVGKAFSTCSSHLCVVCVFYGTLFSAYLCPPSIASEEKDIAAAAMYTIVTPMLNPFIYSLRNKDMKGALKRLFSHRSIVSS [OR1N1] | 119 ± 14 |  |
| MENVTTMNEFLLLGLTGVQELQPFFFGIFLIIYLINLIGNGSILVMVVLEPQLHSPMYFFLGNLSCLDISYSSVTLPKLLVNLVCSRRAISFLGCITQLHFFHFLGSTEAILLAIMAFDRFVAICNPLRYTVIMNPQVCILLAAAAWLISFFYALMHSVMTAHLSFCGSQKLNHFFYDVKPLLELACSDTLLNQWLLSIVTGSISMGAFFLTLLSCFYVIGFLLFKNRSCRILHKALSTCASHFMVVCLFYGPVGFTYIRPASATSMIQDRIMAIMYSAVTPVLNPLIYTLRNKEVMMALKKIFGRKLFKDWQQHH [OR12D3] | 148 ± 34 |  |
| MEPAPSAGAELQPPLFANASDAYPSACPSAGANASGPPGARSASSLALAIAITALYSAVCAVGLLGNVLVMFGIVRYTKMKTATNIYIFNLALADALATSTLPFQSAKYLMETWPFGELLCKAVLSIDYYNMFTSIFTLTMMSVDRYIAVCHPVKALDFRTPAKAKLINICIWVLASGVGVPIMVMAVTRPRDGAVVCMLQFPSPSWYWDTVTKICVFLFAFVVPILIITVCYGLMLLRLRSVRLLSGSKEKDRSLRRITRMVLVVVGAFVVCWAPIHIFVIVWTLVDIDRRDPLVVAALHLCIALGYANSSLNPVLYAFLDENFKRCFRQLCRKPCGRPDPSSFSRAREATARERVTACTPSDGPGGGAAA [OPRD1] |  | plasma membrane surface immunostaining intensity (GPCR class: A): 6220 ± 99 |
| MEPEINCSELCDSFPGQELDRRPLHDLCKTTITSSHHSSKTISSLSPVLLGIVWTFLSCGLLLILFFLAFTIHCRKNRIVKMSSPNLNIVTLLGSCLTYSSAYLFGIQDVLVGSSMETLIQTRLSMLCIGTSLVFGPILGKSWRLYKVFTQRVPDKRVIIKDLQLLGLVAALLMADVILLMTWVLTDPIQCLQILSVSMTVTGKDVSCTSTSTHFCASRYSDVWIALIWGCKGLLLLYGAYLAGLTGHVSSPPVNQSLTIMVGVNLLVLAAGLLFVVTRYLHSWPNLVFGLTSGGIFVCTTTINCFIFIPQLKQWKAFEEENQTIRRMAKYFSTPNKSFHTQYGEEENCHPRGEKSSMERLLTEKNAVIESLQEQVNNAKEKIVRLMSAECTYDLPEGAAPPASSPNKDVQAVASVHTLAAAQGPSGHLSDFQNDPGMAARDSQCTSGPSSYAQSLEGPGKDSSFSPGKEEKISDSKDFSDHLDSGCSQKPWTEQSLGPERGDQVPMNPSQSLLPERGGSDPQRQRHLENSEEPPERRSRVSSVIREKLQEVLQDLGLGPEASLSTAPSCHQQTWKNSAAFSPQKMPLSKELGFSPYMVRRRRAAQRARSHFPGSAPSSVGHRANRTVPGAHSRLHVQNGDSPSLAPQTTDSRVRRPSSRKPSLPSDPQDRPGTLEGSKQSQTEPEGARGSKAAFLRQPSGSGRAPSPAAPCLSKASPDLPEQWQLWPPVPSGCASLSSQHSYFDTESSSSDEFFCRCHRPYCEICFQSSSDSSDSGTSDTDPEPTGGLASWEKLWARSKPIVNFKDDLKPTLV [GPR156] |  | plasma membrane surface immunostaining intensity (GPCR class: C): 352 ± 30 |
| MEPEKQTEISEFFLQGLSEKPEHQTLLFTMFLSTYLVTIIGNALIILAIITDSHLHTPMYFFLFNLSLVDTLLSSTTVPKMLANIQAQSRAIPFVGCLTQMYAFHLFGTMDSFLLAVMAIDRFVAIVHPQRYLVLMCSPVCGLLLGASWMITNLQSLIHTCLMAQLTFCAGSEISHFFCDLMPLLKLSGSDTHTNELVIFAFGIVVGTSPFSCILLSYIRIFWTVFKIPSTRGKWKAFSTCGLHLTVVSLSYGTIFAVYLQPTSPSSSQKDKAAALMCGVFIPMLNPFIYSIRNKDMKAALGKLIGKVAVPCPRPEQLLDVYHVPGSLLAARDTEMHPIPYPGGVQSLAGNRDME [OR1I1] | 161 ± 47 |  |
| MEPLNRTEVSEFFLKGFSGYPALEHLLFPLCSAMYLVTLLGNTAIMAVSVLDIHLHTPVYFFLGNLSTLDICYTPTFVPLMLVHLLSSRKTISFAVCAIQMCLSLSTGSTECLLLAITAYDRYLAICQPLRYHVLMSHRLCVLLMGAAWVLCLLKSVTEMVISMRLPFCGHHVVSHFTCKILAVLKLACGNTSVSEDFLLAGSILLLPVPLAFICLSYLLILATILRVPSAARCCKAFSTCLAHLAVVLLFYGTIIFMYLKPKSKEAHISDEVFTVLYAMVTTMLNPTIYSLRNKEVKEAARKVWGRSRASR [OR13J1] | 140 ± 33 |  |
| MEPRNQTSASQFILLGLSEKPEQETLLFSLFFCMYLVMVVGNLLIILAISIDSHLHTPMYFFLANLSLVDFCLATNTIPKMLVSLQTGSKAISYPCCLIQMYFFHFFGIVDSVIIAMMAYDRFVAICHPLHYAKIMSLRLCRLLVGALWAFSCFISLTHILLMARLVFCGSHEVPHYFCDLTPILRLSCTDTSVNRIFILIVAGMVIATPFVCILASYARILVAIMKVPSAGGRKKAFSTCSSHLSVVALFYGTTIGVYLCPSSVLTTVKEKASAVMYTAVTPMLNPFIYSLRNRDLKGALRKLVNRKITSSS [OR1M1] | 130 ± 31 |  |
